Read-outs that look alike come from different tables or passages of the source.
Tests used:
[1] = target: T1, cynomolgus monkey Siglec15-his protein (cynomolgus monkey); test: indirect ELISA on coated cynomolgus Siglec15-his
T1 construct: In house made; also called Cynomolgus Siglec15-his; cynomolgus Siglec15
T1 chain: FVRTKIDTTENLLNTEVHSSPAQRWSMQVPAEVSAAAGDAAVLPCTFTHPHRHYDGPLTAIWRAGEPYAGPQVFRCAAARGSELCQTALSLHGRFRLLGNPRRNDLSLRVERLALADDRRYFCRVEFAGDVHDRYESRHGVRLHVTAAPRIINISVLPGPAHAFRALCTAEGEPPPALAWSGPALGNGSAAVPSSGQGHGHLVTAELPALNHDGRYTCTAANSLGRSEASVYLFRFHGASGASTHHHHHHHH
Procedure: (§1) The anti-Siglec15 antibodies' cross-reactions to cynomolgus or mouse Siglec15 proteins were measured. Briefly, 96-well micro plates were coated with 100 μl of 2 μg/ml cynomolgus Siglec15-his protein (in house made with SEQ ID NO: 21), or 2 μg/ml mouse Siglec15-his protein (in house made with SEQ ID NO: 22) in carbonate/bicarbonate buffer (pH 9.6) for 2 hours at 37° C. ELISA plates were washed once with wash buffer (PBS+0.05% v/v Tween-20, PBST) and then blocked with 200 μl/well blocking buffer (5% w/v non-fatty milk in PBST) overnight at 4° C. Plates were washed 4 times and incubated with 100 μl serially diluted anti-Siglec15 antibodies of the disclosure or controls (starting at 66.7 nM, 5-fold serial dilution in PBST with 2.5% w/v non-fatty milk) for 40 minutes at 37° C. ELISA plates were washed 4 times again and incubated with Peroxidase AffiniPure Goat Anti-Human IgG, F(ab)₂ fragment specific (1:5000 dilution in PBST buffer, Jackson Immunoresearch, Cat #109-035-097, 100 μl/well) for 40 minutes at 37° C. After a final wash, plates were incubated with 100 μl/well TMB (Innoreagents, Cat #TMB-S-002). The reaction was stopped 4 minutes later at room temperature with 50 μl 1M H₂SO₄, and the absorbance of each well was read on a microplate reader using dual wavelength mode with 450 nm for TMB and 630 nm as the reference wavelength, then the OD (450-630) values were plotted against antibody concentration. Data was analyzed using Graphpad Prism software and EC₅₀ values were reported.

[2] = target: T2, human Siglec15 on human-siglec15-2D3-1E1 cells (human, UniProt Q6ZMC9 20-328); test: cell based binding FACS on human-siglec15-2D3-1E1 cells
T2 construct: whole, on cells; Transfected HEK-293 cells; also called cell surface human Siglec15
T2 sequence (looked up): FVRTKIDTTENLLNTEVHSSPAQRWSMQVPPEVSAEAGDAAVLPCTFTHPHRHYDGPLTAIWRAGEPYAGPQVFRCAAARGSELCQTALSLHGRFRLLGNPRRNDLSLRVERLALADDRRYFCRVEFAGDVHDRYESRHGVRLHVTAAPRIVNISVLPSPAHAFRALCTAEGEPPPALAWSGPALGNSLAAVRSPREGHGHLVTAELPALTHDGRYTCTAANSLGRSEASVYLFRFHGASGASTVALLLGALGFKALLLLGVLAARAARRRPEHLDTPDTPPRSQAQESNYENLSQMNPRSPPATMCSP
Procedure: The binding activities of the anti-Siglec15 antibodies to cell surface Siglec15 were tested by flow cytometry (FACS), using in-house prepared human-siglec15-2D3-1E1 cells expressing human Siglec15 (amino acid residues Met1-Pro328 of uniprot #Q6ZMC9) on cell membranes. The human-siglec15-2D3-1E1 cells were prepared by transfecting HEK-293 cells (ATCC #CRL-1573) with pCMV-T-P plasmids inserted with human Siglec15 coding sequence between EcoRI and XbaI sites, following the instruction of lipofectamine 3000 transfection reagent (Thermo Fisher). The human-siglec15-2D3-1E1 cells were harvested from cell culture flasks, washed twice and re-suspended in phosphate buffered saline (PBS) containing 2% v/v Fetal Bovine Serum (FACS buffer). 2×10⁵ cells per well in 96 well-plates were incubated in 100 μL serially diluted anti-Siglec15 antibodies or controls (starting at 66.67 nM, 5-fold serial dilution) in FACS buffer for 40 minutes on ice. […] Following a 40-minute incubation at 4° C. in dark, cells were washed three times and re-suspended in FACS buffer. Fluorescence was measured using a Becton Dickinson FACS Canto II-HTS equipment. Data was analyzed using Graphpad Prism software and EC₅₀ values were reported.

[3] = target: T3, human Siglec15-Fc protein (human); test: competitive ELISA: coated human Siglec15-Fc, blocked ligand biotin-labeled human LRRC4C-Fc
T3 construct: In house made; also called recombinant human Siglec15 protein with human IgG1 Fc at the C-terminus
Procedure: Serially diluted anti-Siglec15 antibodies or the controls (starting at 66.67 nM with a 5-fold serial dilution) in PBST with 2.5% w/v non-fatty milk were added to the Siglec15-Fc bound plates, 100 μl per well, and incubated with the human Siglec15-Fc protein at 37° C. for 40 minutes. Plates were washed 4 times again using wash buffer, then added and incubated for 40 minutes at 37° C. with 100 μl/well 290 ng/ml biotin-labeled human LRRC4C-Fc protein (prepared in-house with SEQ ID NO: 23). Plates were washed again using wash buffer. Thereafter, the plates were added with 100 μl/well streptavidin conjugated HRP (1:5000 dilution in PBST buffer, Jackson Immunoresearch, Cat #016-030-084) and incubated for 40 minutes at 37° C. Plates were washed again using wash buffer. Finally, TMB was added and the reaction was stopped using 1M H₂SO₄, and the absorbance of each well was read on a microplate reader using dual wavelength mode with 450 nm for TMB and 630 nm as the reference wavelength, then the OD (450-630) values were plotted against antibody concentration. Data was analyzed using Graphpad Prism software and IC₅₀ values were reported.
The mouse anti-Siglec15 antibodies of the disclosure were also tested in ligand blocking ELISA and benchmark blocking ELISA following the protocols described above.

[4] = target: T1, cynomolgus monkey Siglec15-his protein; test: indirect ELISA on coated cynomolgus Siglec15-his
Procedure: as §1

T3 sequence (chain, as listed by the source limits assumed): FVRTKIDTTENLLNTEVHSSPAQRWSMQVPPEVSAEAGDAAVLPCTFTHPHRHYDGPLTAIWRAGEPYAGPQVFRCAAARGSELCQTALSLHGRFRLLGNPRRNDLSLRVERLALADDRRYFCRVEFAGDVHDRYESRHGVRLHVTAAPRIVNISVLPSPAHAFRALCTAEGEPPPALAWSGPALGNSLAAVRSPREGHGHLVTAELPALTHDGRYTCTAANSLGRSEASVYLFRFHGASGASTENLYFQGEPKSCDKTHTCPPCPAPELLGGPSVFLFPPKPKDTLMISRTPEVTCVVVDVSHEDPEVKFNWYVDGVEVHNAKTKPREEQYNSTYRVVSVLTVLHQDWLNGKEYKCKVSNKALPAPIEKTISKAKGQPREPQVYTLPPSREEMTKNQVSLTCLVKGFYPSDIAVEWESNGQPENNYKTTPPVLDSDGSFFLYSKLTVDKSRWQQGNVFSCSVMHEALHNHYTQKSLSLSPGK

Binder	EC50 [1] [nM]	EC50 [2] [nM]	IC50 [3] [nM]	EC50 [4] [nM]
B2D7H7A3C1 (antibody, V domains shown, Mouse monoclonal antibody from hybridoma; also called mouse B2D7H7A3C1) VH: QVQLQQSGAELVRPGTSVQMSCKAAGYTFTNYWIGWVKQRPGHGLEWVGDIHPGINYTNNNEKFRGKATLTADTSSNTAYMQLRGLTSDDSAIYYCARVDYDYDGSYIMDYWGQGTSVTVSS VL: QIVLSQSPALLSASPGEKVTMTCRASSSVSYMYWYQQKPGSSPKPWIYATSNLTSGVPARFSGSGSGTSYSLTISRVEAEDAATYFCQQWNSKPWTFGGGSKLEIR	0.197	0.998	0.868	–
B2H2H1H7 (antibody, V domains shown, Mouse monoclonal antibody from hybridoma; also called mouse B2H2H1H7; B2H2H1A7) VH: QVQLQQSGAELVRPGTSVQMSCKAAGYTFTNYWIGWVKQRPGHGLEWVGDIHPGINYTNNNEKFRGKATLTADTSSSTAYMQLRGLTSDDSAIYYCARVDYDYDGSYIMDYWGQGTSVTVSS VL: QIILSQSPALLSASPGEKVTMTCRASSSVSYMYWYQQKPGSSPKPWIYATSNLTSGVPARFSGSGSGTSYSLTISRVEAEDAATYFCQQWNSKPWTFGGGSRLEIR	0.179	1.91	1.04	–
B2G12H3E8 (antibody, V domains shown, Mouse monoclonal antibody from hybridoma; also called mouse B2G12H3E8) VH: QVQLKQSGAELVRPGTSVQMSCKAVGYTFTNYWIGWVKQRPGHGLEWVGDIHPGINYTNNNEKFRGKATLTADTSSSTAYMQLRGLTSDDSAIYYCARVDYDYDGSYIMDYWGQGTSVTVSS VL: QIVLSQSPALLSASPGEKVTMTCRASSSVSYMYWYQQKPGSSPKPWIYATSNLTSGVPARFSGSGSGTSYSLTISRVEAEDAATYFCQQWNSKPWTFGGGSKLEIR	0.146	1.17	0.954	–
anti-Siglec15 benchmark (ch5G12) (antibody, human IgG1, kappa, V domains shown, ch5G12 (US 20190202912A1); also called BM; Siglec15-ch5G9) VH: QVQLQQPGAELVKPGASVKMSCKASGYTFTSYWITWVIQRPGQGLEWIGDIYCGSDTMHYNEKFKNKATLTVDTSSSTAYMQLSSLTSEDSAVYYCARWWDYGSSYDYFDYWGQGTTLTVSS VL: DIKMTQSPSSMYASLGERVTITCKASQDINSYLSWFQQKPGKSPKTLIYRANRLVDGVPSRFSGSGSGQDYSLTISSLEYEDMGIYYCLQYDEFPYTFGGGTKLEIKR	0.201	11.6	1.57	0.313
A2A5C7E8 (antibody, V domains shown, Fully human antibody from transgenic mouse hybridoma; also called A2A5C7E8-1) VH: EVQLVQSGAEVKKPGESLRISCKGSGYSFTTYWISWVRQMPGKGLEWMGLIDPSDSYTNYSPSFQGHVTISTDKSISTAYLQWSSLKASDTAMYYCARGGYYGSEEDYWGQGTLVTVSS VL: EIVLTQSPGTLSLSPGERATLSCRASQSVSSSRLAWFQQKSGQAPRLLIFDASSRATGIPDRFSGSGSGTDFTLTISRLEPEDFAVYYCQQYGSSPRTFGQGTKVEFK	–	–	–	0.136
A2A5C7E8-2 (antibody, human IgG1, kappa, V domains shown, Variant of A2A5C7E8 modified in VH CDR2 (X1 = E)) VH: EVQLVQSGAEVKKPGESLRISCKGSGYSFTTYWISWVRQMPGKGLEWMGLIDPSESYTNYSPSFQGHVTISTDKSISTAYLQWSSLKASDTAMYYCARGGYYGSEEDYWGQGTLVTVSS VL: EIVLTQSPGTLSLSPGERATLSCRASQSVSSSRLAWFQQKSGQAPRLLIFDASSRATGIPDRFSGSGSGTDFTLTISRLEPEDFAVYYCQQYGSSPRTFGQGTKVEFKR	–	–	–	0.15
A2A5C7E8-3 (antibody, human IgG1, kappa, V domains shown, Variant of A2A5C7E8 modified in VH CDR2 (X2 = K)) VH: EVQLVQSGAEVKKPGESLRISCKGSGYSFTTYWISWVRQMPGKGLEWMGLIDPSDSYTNYSPSFKGHVTISTDKSISTAYLQWSSLKASDTAMYYCARGGYYGSEEDYWGQGTLVTVSS VL: EIVLTQSPGTLSLSPGERATLSCRASQSVSSSRLAWFQQKSGQAPRLLIFDASSRATGIPDRFSGSGSGTDFTLTISRLEPEDFAVYYCQQYGSSPRTFGQGTKVEFKR	–	–	–	0.146

From US20230106715A1 (BIOSION, published 2023)
